Source: article doi:10.1101/2022.10.21.513107 (bioRxiv, 2022)
Substitutions are numbered along the chain they refer to.

B1: sdAb A37 (VHH)
VHH: QVKLEESGGGLVQAGGSLRLSCVASGSTFIITDMAWYRQAPGKQRELVAGITLRGGTNYADSVKGRFTISRDNVKNTVTLQMNSLKPEDTAVYYCNAKVAEWRNRPDYWGQGTQVTVSS
B2: sdAb 2A03 (VHH)
VHH: QVQLVESGGGLVQAGGSLRLSCAASGRTSSINIMGWYRQPPGKQREMVATIATGGTTNYAESVKGRFTISRDGAKFVYLQLNDLKPEDTAVYYCNAYRYAVGKNQRAWDIWGQGTQVTVSS
B3: sdAb C38 (VHH)
VHH: QVQLVESGGGVVQAGGSLRLSCAPSGNIFSINTMGWHRQAPGKQREFVARIRSSGQTNYADSVKGRFTISKDSAKDTVYLQMDNLQPEDSAVYYCTFNSGGWGVERKRRDYWGQGTQVTVSS
B4: sdAb 2A04 (VHH)
VHH: B3 VHH with Q3K, V5E, S90T, S99T, K107Q
B5: sdAb C26 (VHH)
VHH: QVQLVESGGGLVQAGGSLRLSCAASGSIYSINAMGWYRQAPGKQRELVAVITSSGSTNYADAVKGRFTISRDNAKNQVYLQMNSLKPEDTAVYYCHAWSPFRGSFSGDALDAWGQGTQVTVSS

How the values were obtained:
[1] = target: endogenous HPV16 E6 protein of SiHa cells (Human papillomavirus type 16, SiHa …, UniProt P03126); test: immunostaining of cells or tissue
[2] = target: His6MBP-4C/4S E6 (Human papillomavirus type 16, reference …, UniProt P03126, stabilised); test: far-Western, overlay or dot blot

Row | Binder | binding result [1] | binding result [2]
1 | B1 | binds | –
2 | B2 | binds | –
3 | B3 | – | binds
4 | B4 | binds | –
5 | B5 | binds | –
